Patent US20260209368A1 (PROMETHEUS BIOSCIENCES, published 2026)

T1: recombinant human TL1A protein (human, UniProt O95150 72-251)
T1 sequence (looked up): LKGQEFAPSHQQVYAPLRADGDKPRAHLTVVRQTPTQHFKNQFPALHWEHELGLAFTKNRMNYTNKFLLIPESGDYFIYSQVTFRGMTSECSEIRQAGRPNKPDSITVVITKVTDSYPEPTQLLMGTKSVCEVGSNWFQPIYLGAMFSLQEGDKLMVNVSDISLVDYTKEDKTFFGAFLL

T2: recombinant cynomolgus monkey TL1A protein (cynomolgus monkey, UniProt G7PRK8 72-251)
T2 sequence: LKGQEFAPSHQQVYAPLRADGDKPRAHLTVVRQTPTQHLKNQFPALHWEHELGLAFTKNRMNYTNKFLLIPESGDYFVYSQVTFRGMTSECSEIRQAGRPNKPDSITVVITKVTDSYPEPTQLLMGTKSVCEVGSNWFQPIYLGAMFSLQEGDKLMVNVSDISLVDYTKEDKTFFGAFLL

T3: TL1A in human blood (human, UniProt O95150 72-251, limits assumed)
T3 sequence (looked up): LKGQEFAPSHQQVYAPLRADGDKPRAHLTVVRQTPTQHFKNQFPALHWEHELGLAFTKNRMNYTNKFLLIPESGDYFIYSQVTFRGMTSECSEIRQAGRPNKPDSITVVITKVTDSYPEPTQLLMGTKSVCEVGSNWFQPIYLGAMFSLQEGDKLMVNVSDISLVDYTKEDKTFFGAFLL


Legend:
[1] = molecular target: T1, recombinant human TL1A protein; assay: cell-based or functional assay
[2] = molecular target: T2, recombinant cynomolgus monkey TL1A …; assay: cell-based or functional assay
[3] = molecular target: T2, recombinant cynomolgus monkey TL1A …; assay: ELISA on recombinant TL1A protein, antibody titrated, A450 nm read
Procedure: ELISA for each protein was performed at least three times. The data from a representative experiment are shown and are mean±SD. Abbreviations: A=absorbance, Ab=antibody, Cyno=cynomolgus, nm-nanometer, nM-nanomolar. […] Samples were assayed in triplicate, on two separate occasions. Data presented are the mean TL1A concentrations of three animals per group+SD. Samples collected from animals administered isotype control antibody are shown in circles, samples collected from animals administered anti-TL1A are shown in the triangles and square.

TL1A in human blood = molecular target: T3, TL1A in human blood; assay: cell-based or functional assay

IC50 of inhibition of TL1A-induced caspase activation in TF-1 cells [1] [nM]	IC50 of inhibition of TL1A-induced caspase activation in TF-1 cells [2] [nM]	IC50 of inhibition of the IFN-γ response in monkey whole blood stimulated with immune complex, IL-12 and IL-18 [2] [nM]	EC50 (read off the curve) [3] [nM]	% Inhibition at 1 nM Ig; inhibition of interferon gamma release in human blood (TL1A in human blood) [%]	% Inhibition at 10 nM Ig; inhibition of interferon gamma release in human blood (TL1A in human blood) [%]	Binder
0.27	0.59	1.54	~0.4	–	–	anti-TL1A antibody A219 (antibody, V domains shown, Humanized monoclonal IgG1 with a kappa light chain, designed to abolish effector functions) VH: QVQLVQSGAEVKKPGASVKVSCKASGFDIQDTYMHWVKQRPGQGLEWMGRIDPASGHTKYDPKFQVRVTITRDTSTSTVYLELSSLRSEDTAVYYCARSGGLPDVWGQGTTVTVSS VL: EIVLTQSPGTLSLSPGERATLSCRASSSVSYMYWYQQKPGQAPRPLIYATSNLASGIPDRFSGSGSGTDFTLTISRLEPEDFAVYYCQQWEGNPRTFGGGTKLEIK
–	–	–	–	51.3	72.4	A147 (antibody, V domains shown) VH: QVQLVQSGAEVKKPGASVKVSCKASGFDIQDTYMHWVKQRPGQGLEWMGRIEPASGHIKYDPKFQGRVTMTRDTSTSTVYMELSSLRSEDTAVYYCARSGGLPDWWGQGTTVTVSS VL: EIVLTQSPGTLSLSPGERATLSCRASSSVSYMYWYQQKPGQAPRPLIYATSNLASGIPDRFSGSGSGTDFTLTISRLEPEDFAVYYCQQWEGNPRTFGGGTKLEIK
–	–	–	–	46	72.2	A217 (antibody, V domains shown) VH: QVQLVQSGAEVKKPGASVKVSCKASGFDIQDTYMHWVKQRPGQGLEWMGRIDPASGHTKYDPKFQVRVTITRDTSTSTVYMELSSLRSEDTAVYYCARSGGLPDVWGQGTTVTVSS VL: EIVLTQSPGTLSLSPGERATLSCRASSSVSYMYWYQQKPGQAPRPLIYATSNLASGIPDRFSGSGSGTDFTLTISRLEPEDFAVYYCQQWEGNPRTFGGGTKLEIK
–	–	–	–	48.6	69.8	A213 (antibody, V domains shown) VH: QVQLVQSGAEVKKPGASVKVSCKASGFDIQDTYMHWVRQRPGQGLEWMGRIDPASGHTKYDPKFQVRVTITTDTSTSTVYMELSSLRSEDTAVYYCARSGGLPDVWGQGTTVTVSS VL: EIVLTQSPGTLSLSPGERATLSCRASSSVSYMYWYQQKPGQAPRPLIYATSNLASGIPDRFSGSGSGTDFTLTISRLEPEDFAVYYCQQWEGNPRTFGGGTKLEIK
–	–	–	–	36.9	63.2	A220 (antibody, V domains shown) VH: QVQLVQSGAEVKKPGASVKVSCKASGFDIQDTYMHWVKQRPGQGLEWMGRIDPASGHTKYDPKFQVRVTMTRDTSTSTAYLELSSLRSEDTAVYYCARSGGLPDVWGQGTTVTVSS VL: EIVLTQSPGTLSLSPGERATLSCRASSSVSYMYWYQQKPGQAPRPWIYATSNLASGIPDRFSGSGSGTDFTLTISRLEPEDFAVYYCQQWEGNPRTFGGGTKLEIK
–	–	–	–	59.8	75.2	A219 (antibody, V domains shown) VH: QVQLVQSGAEVKKPGASVKVSCKASGFDIQDTYMHWVKQRPGQGLEWMGRIDPASGHTKYDPKFQVRVTITRDTSTSTVYLELSSLRSEDTAVYYCARSGGLPDVWGQGTTVTVSS VL: EIVLTQSPGTLSLSPGERATLSCRASSSVSYMYWYQQKPGQAPRPLIYATSNLASGIPDRFSGSGSGTDFTLTISRLEPEDFAVYYCQQWEGNPRTFGGGTKLEIK
–	–	–	–	46.8	71.2	A212 (antibody, V domains shown) VH: QVQLVQSGAEVKKPGASVKVSCKASGFDIQDTYMHWVRQRPGQGLEWIGRIDPASGHTKYDPKFQVRATITTDTSTSTAYLELSSLRSEDTAVYYCARSGGLPDVWGQGTTVTVSS VL: EIVLTQSPGTLSLSPGERATLSCRASSSVSYMYWYQQKPGQAPRPLIYATSNLASGIPDRFSGSGSGTDFTLTISRLEPEDFAVYYCQQWEGNPRTFGGGTKLEIK
